In this experiment the target is T1, PTB RRM2 (residues 156-285 of PTB) as it stands in the PRI-RRM2 chimeras (UniProt P26599 156-285).
T1 construct: the linker residues had no density; source: E. coli BL21 (DE3), purified as part of the PRI-RRM2 chimeras
Description: crystal structure; PRI sequence fused as N-terminal extension to PTB 156-285 on one chain; sitting drop, 0.2 M NaI, 0.1 M Bis-Trispropane pH 6.5, 20% PEG 3350; two complexes in the asymmetric unit. To be noted: both partners purified.

T1 sequence (P26599 156-285, change not shown): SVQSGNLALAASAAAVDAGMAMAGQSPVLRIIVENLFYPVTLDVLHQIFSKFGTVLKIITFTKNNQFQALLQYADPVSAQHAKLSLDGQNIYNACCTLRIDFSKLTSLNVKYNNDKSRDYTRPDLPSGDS

B1: Raver1 PRI4 12-residue sequence as it stands in the PRI4-RRM2 chimera (peptide)
peptide: SSEGLLGLGPGP
notes: core GLLGLGP is numbered 1-7; In the crystal it was joined on one chain with m3 (chimera m5); source: E. coli BL21 (DE3), purified as part of the PRI4-RRM2 chimera
As to B1, the binding result is recorded as “binds”.

B2: Raver1 PRI3 12-residue sequence as it stands in the PRI3-RRM2 chimera (peptide)
peptide: PGVSLLGAPPKD
notes: core SLLGAPP is numbered 1-7; In the crystal it was joined on one chain with m3 (chimera m1); source: E. coli BL21 (DE3), purified as part of the PRI3-RRM2 chimera
As for B2, the binding result is “binds”.
